Test results as given in the supplement of paper PMC10065799, “High-throughput profiling of sequence recognition by tyrosine kinases and SH2 domains using bacterial peptide display” (eLife, 2023).

Tests used:
c-Src SH2 = test: SH2 binding enrichment of the phosphorylated peptide, bacterial display (enrichment ratio); higher = better substrate or ligand; peptides without Tyr show the background
Grb2 SH2 = Grb2 SH2 (UniProt P62993); test: as above
SHP2-C SH2 = test: as above
Jak2 = Jak2 (UniProt O60674); test: phosphorylation enrichment, bacterial display (enrichment ratio); higher = better substrate or ligand; peptides without Tyr show the background
FGFR3 = FGFR3 (UniProt P22607); test: as above
EPHB1 = EPHB1 (UniProt P54762); test: as above
MERTK = MERTK (UniProt Q12866); test: as above
EPHB2 = EPHB2 (UniProt P29323); test: as above
c-Abl (mouse) = test: as above
Fyn = Fyn (UniProt P06241); test: as above
c-Src = test: as above
AncSZ = test: as above
Fer (mouse) = test: as above
Hck = Hck (UniProt P08631); test: as above
FGFR1 = FGFR1 (UniProt P11362); test: as above
Fes = Fes (UniProt P07332); test: as above
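For SH2 binding enrichment of the phosphorylated peptide, bacterial display in this document: peptide library displayed on the E. coli surface as eCPX fusions, selected cells deep-sequenced, score is each peptide's frequency after selection divided by its frequency in the input.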
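For phosphorylation enrichment, bacterial display in this document: 11-residue human phosphosite peptides and single-mutation variants displayed on the E. coli surface, counted by deep sequencing, each peptide's frequency after selection divided by its frequency in the unselected input library; frequency after pTyr selection over input frequency; kinase dosed for 20-30% of maximal phosphorylation in three min.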

Jak2, sequence (O60674 whole entry, looked up): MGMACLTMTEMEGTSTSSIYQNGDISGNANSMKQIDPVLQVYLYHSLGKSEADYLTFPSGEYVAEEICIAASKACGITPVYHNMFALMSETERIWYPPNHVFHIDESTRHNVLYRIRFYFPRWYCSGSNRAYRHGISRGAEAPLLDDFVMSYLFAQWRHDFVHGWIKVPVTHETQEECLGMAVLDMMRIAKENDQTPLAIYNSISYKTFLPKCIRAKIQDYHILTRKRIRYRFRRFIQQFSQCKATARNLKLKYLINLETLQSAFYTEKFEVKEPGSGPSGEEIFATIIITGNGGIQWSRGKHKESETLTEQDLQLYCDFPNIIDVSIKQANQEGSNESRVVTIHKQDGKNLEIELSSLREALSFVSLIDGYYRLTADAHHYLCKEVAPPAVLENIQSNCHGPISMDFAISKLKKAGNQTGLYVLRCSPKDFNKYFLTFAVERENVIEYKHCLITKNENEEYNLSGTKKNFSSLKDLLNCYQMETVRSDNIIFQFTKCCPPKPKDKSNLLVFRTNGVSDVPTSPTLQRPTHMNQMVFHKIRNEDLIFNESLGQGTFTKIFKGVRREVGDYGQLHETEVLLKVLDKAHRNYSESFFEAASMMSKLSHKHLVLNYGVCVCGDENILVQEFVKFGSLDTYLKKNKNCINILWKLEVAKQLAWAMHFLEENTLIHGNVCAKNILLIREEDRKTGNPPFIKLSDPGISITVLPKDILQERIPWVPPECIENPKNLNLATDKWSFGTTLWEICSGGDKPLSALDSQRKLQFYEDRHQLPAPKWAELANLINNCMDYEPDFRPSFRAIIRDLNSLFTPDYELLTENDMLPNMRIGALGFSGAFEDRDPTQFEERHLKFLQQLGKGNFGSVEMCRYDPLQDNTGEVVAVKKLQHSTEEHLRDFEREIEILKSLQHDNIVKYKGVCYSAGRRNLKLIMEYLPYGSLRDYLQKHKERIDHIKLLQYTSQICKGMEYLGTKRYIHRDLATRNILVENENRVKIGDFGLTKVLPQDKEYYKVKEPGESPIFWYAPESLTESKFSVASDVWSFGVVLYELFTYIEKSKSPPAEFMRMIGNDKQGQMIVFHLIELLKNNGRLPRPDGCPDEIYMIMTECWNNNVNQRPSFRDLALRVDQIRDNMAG
Grb2 SH2, sequence (P62993 whole entry, looked up): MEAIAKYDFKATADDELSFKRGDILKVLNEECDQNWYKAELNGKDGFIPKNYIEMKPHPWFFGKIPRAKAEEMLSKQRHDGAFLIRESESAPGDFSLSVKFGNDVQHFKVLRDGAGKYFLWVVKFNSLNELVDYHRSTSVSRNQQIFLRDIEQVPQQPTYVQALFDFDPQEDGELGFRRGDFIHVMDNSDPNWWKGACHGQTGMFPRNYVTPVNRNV
Fes, sequence (P07332 whole entry, looked up, the tested form may be a part): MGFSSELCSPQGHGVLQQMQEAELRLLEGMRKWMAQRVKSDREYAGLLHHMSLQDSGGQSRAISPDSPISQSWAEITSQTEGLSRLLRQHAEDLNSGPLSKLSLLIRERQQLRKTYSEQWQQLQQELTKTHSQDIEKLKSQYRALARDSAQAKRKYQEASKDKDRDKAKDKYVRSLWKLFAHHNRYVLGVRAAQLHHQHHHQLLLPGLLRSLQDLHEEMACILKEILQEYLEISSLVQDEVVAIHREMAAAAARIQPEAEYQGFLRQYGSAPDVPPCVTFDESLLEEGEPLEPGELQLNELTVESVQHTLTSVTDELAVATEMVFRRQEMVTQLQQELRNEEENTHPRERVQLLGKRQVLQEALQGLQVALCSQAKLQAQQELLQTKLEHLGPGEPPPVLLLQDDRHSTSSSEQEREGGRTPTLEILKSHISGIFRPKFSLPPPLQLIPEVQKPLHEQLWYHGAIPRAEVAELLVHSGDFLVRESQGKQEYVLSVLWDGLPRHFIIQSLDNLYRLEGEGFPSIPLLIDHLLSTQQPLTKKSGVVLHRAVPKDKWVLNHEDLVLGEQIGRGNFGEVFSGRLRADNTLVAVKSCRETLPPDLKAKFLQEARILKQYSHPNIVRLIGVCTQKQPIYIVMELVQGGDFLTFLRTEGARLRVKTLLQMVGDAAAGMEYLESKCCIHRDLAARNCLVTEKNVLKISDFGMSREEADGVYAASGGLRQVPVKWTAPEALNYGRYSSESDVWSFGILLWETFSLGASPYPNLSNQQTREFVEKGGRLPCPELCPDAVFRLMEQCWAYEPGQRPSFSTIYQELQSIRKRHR
Hck, sequence (P08631 whole entry, looked up): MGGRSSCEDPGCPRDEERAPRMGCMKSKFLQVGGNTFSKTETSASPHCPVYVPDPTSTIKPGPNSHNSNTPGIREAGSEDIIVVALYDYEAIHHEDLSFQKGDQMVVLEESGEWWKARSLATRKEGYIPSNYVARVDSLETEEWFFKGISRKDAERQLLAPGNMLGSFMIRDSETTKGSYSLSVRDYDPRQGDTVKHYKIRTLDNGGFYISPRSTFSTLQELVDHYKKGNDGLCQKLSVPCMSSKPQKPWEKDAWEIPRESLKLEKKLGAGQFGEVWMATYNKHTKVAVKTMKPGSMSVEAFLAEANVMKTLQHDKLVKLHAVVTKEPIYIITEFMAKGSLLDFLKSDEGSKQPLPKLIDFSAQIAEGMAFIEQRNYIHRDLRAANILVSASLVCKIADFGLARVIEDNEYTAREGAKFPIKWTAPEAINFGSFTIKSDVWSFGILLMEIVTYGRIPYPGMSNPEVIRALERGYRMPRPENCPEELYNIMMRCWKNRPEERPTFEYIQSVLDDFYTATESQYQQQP
FGFR1, sequence (P11362 whole entry, looked up): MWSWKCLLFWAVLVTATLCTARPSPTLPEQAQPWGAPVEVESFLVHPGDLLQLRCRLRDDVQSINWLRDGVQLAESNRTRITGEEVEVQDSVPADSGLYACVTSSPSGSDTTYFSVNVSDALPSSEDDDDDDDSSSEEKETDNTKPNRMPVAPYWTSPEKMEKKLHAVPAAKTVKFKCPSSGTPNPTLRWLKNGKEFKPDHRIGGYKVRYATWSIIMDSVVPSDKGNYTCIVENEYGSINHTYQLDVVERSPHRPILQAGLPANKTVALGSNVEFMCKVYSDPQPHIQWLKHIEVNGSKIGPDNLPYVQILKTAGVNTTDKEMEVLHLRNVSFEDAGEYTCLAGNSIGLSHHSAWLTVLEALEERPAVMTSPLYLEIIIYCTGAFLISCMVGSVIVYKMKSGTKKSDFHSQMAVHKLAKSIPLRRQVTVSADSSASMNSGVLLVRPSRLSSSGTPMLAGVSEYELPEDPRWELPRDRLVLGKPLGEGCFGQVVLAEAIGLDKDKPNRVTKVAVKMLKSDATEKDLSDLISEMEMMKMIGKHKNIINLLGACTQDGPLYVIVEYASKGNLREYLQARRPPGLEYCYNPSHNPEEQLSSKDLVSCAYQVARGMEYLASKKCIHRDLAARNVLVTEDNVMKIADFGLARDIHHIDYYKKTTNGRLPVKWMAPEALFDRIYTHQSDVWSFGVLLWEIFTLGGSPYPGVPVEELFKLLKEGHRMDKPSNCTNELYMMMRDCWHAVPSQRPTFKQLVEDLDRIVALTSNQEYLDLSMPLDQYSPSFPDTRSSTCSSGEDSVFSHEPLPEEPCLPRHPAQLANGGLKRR
EPHB1, sequence (P54762 whole entry, looked up): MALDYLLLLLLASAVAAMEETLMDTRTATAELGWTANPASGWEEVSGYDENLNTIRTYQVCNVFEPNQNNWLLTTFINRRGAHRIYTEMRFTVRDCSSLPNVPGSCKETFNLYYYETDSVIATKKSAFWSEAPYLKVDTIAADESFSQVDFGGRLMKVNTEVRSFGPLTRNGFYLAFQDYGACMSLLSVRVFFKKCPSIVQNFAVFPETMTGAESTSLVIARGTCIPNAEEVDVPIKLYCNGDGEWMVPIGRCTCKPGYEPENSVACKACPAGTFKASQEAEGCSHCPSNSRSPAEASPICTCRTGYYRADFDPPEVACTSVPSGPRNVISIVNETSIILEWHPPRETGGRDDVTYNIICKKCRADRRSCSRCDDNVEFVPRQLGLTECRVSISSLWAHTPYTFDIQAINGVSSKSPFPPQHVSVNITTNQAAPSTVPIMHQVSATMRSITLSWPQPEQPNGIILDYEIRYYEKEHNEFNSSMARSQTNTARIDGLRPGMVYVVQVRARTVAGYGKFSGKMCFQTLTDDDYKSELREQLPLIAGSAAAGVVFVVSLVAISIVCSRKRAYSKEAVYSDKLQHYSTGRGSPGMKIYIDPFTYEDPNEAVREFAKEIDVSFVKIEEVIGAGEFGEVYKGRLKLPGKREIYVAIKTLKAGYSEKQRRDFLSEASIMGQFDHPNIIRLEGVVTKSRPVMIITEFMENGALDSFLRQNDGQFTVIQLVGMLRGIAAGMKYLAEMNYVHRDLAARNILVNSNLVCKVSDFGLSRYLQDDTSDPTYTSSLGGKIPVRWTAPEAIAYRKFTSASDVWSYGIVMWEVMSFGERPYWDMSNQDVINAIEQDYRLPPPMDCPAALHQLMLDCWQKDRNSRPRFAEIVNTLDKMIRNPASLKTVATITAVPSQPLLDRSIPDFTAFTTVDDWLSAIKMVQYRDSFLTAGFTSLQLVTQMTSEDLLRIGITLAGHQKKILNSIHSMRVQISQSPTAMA
Fyn, sequence (P06241 whole entry, looked up): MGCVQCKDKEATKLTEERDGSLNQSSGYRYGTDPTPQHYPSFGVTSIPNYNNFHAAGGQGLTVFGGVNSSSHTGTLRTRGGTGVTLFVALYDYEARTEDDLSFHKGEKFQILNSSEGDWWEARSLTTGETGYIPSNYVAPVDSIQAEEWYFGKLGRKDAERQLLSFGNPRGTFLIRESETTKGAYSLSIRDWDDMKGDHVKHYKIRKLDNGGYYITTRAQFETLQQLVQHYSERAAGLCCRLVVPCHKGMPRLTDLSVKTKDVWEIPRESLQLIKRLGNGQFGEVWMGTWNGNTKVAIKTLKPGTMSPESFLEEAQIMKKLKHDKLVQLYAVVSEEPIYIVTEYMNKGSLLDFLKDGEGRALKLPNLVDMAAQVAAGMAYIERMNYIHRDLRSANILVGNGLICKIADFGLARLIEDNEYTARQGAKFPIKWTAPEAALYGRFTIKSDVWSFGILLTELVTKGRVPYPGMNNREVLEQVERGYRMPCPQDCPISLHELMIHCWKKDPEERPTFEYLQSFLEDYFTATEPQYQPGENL

| Sequence | SH2 binding enrichment (c-Src SH2) | SH2 binding enrichment (Grb2 SH2) | SH2 binding enrichment (SHP2-C SH2) | phosphorylation enrichment (Jak2) | phosphorylation enrichment (FGFR3) | phosphorylation enrichment (EPHB1) | phosphorylation enrichment (MERTK) | phosphorylation enrichment (EPHB2) | phosphorylation enrichment (c-Abl (mouse)) | phosphorylation enrichment (Fyn) | phosphorylation enrichment (c-Src) | phosphorylation enrichment (AncSZ) | phosphorylation enrichment (Fer (mouse)) | phosphorylation enrichment (Hck) | phosphorylation enrichment (FGFR1) | phosphorylation enrichment (Fes) |
| --- | --- | --- | --- | --- | --- | --- | --- | --- | --- | --- | --- | --- | --- | --- | --- | --- |
| TFACSYTPVKA [FLNB_Y708_YF] | 0.587 | 0.481 | 1.39 | 1.09 | 0.653 | 0.527 | 0.342 | 0.577 | 0.961 | 0.444 | 0.536 | 1.16 | 0.449 | 0.562 | 0.582 | 1.08 |
| KVPAIYGVDTR [CPS1_Y162] | 0.466 | 0.841 | 0.707 | 0.615 | 0.469 | 0.334 | 0.54 | 0.383 | 0.525 | 0.642 | 0.782 | 0.61 | 0.422 | 0.701 | 0.398 | 0.665 |
| PSQRCYVFFFS [PTEN_Y174_R173C_YF] | 0.705 | 1.2 | 1.11 | 1.24 | 1.35 | 0.865 | 0.646 | 0.735 | 0.882 | 0.79 | 0.646 | 1.37 | 0.703 | 0.616 | 0.837 | 1.73 |
| KEELDYLKKNH [KRT14_Y248_A247D] | 0.425 | 0.742 | 0.682 | 0.879 | 0.666 | 0.554 | 0.419 | 0.624 | 0.854 | 0.355 | 0.467 | 1.04 | 0.45 | 0.382 | 0.447 | 1.1 |
| AGAIIYTSRFQ [PFAS_Y538] | 0.464 | 1.08 | 1.1 | 0.686 | 0.504 | 0.486 | 0.568 | 0.674 | 0.72 | 0.58 | 0.929 | 0.748 | 0.506 | 0.76 | 0.398 | 0.839 |
| SLTCTYSPALN [TP53_Y126_V122L] | 0.487 | 0.657 | 0.453 | 1.57 | 1.21 | 0.924 | 0.522 | 0.882 | 1.65 | 0.797 | 0.804 | 1.56 | 0.696 | 0.818 | 0.66 | 1.81 |
| DFPGNYSGYDD [POLR1C_Y33] | 2.03 | 0.853 | 0.582 | 1.17 | 0.913 | 1.31 | 0.62 | 1.3 | 0.976 | 0.675 | 0.612 | 1.3 | 0.65 | 0.573 | 0.671 | 1.24 |
| LGPDGYSTVDQ [ARVCF_Y901_R906Q] | 36 | 1.21 | 1.77 | 1.72 | 1.21 | 0.876 | 0.707 | 1.22 | 1.31 | 0.982 | 0.848 | 1.63 | 0.833 | 0.9 | 1.04 | 2.87 |
